Data as given in patent US20080207526A1.
Where two headings read alike, the source gives them in different places.

T1: recombinant water-soluble HLA-DR1 (DRA/DRB1*0101) (human)
T1 chain 1: not shown
T1 chain 2: not shown

T2: recombinant water-soluble HLA-DR4 (DRA/DRB1*0401) (human)
T2 chain 1: not shown
T2 chain 2: not shown

T3: HLA-DR4 on antigen presenting cells (L cells transfected with DR4; Priess cells DRB1*0401/DRB4*0101) (human)
T3 chain 1: not shown
T3 chain 2: not shown


Key:
[1] = target: recombinant water-soluble HLA-DR4 (DRA/DRB1*0401) (human)
[2] = target: recombinant water-soluble HLA-DR1 (DRA/DRB1*0101) (human)
[3] = target: recombinant water-soluble HLA-DR2 (DRB1*1501) (human)
[4] = target: recombinant water-soluble HLA-DR4 (DRA/DRB1*0401) (human); remark: listed apart in the source
[5] = target: recombinant water-soluble HLA-DR1 (DRA/DRB1*0101) (human); remark: listed apart in the source
[6] = target: T1, recombinant water-soluble HLA-DR1 …
[7] = target: T2, recombinant water-soluble HLA-DR4 …
[8] = target: T3, HLA-DR4 on antigen presenting cells (L …); experiment: cell-based or functional assay
[9] = target: T2, recombinant water-soluble HLA-DR4 …
[10] = target: T1, recombinant water-soluble HLA-DR1 …

Row | Molecule | affinity determined by competition with biotinylated competitor [7] [µM] | inhibition of the DR4-restricted 3838 T cell clone (IL-2 secretion) [8] [%] | also measured
1 | Copolymer 1, poly(Y,E,A,K) |  |  | affinity determined by competition with biotinylated competitor [1]: 2.5 µM; affinity determined by competition with biotinylated competitor [2]: 8 µM; percent of added YEAK in the bound fraction [3]: 80%; percent of added YEAK in the bound fraction [4]: > 95%; percent of added YEAK in the bound fraction [5]: > 95%
2 | AAEYAAAAAAKAAAA (modifications not checked) [peptide SEQ ID NO: 12] | 3.2 |  | affinity determined by competition with biotinylated competitor [6]: 47 µM
3 | EKAYAAAAAAKAAAA (modifications not checked) [peptide SEQ ID NO: 13] | 3.3 |  | 
4 | KEAYAAAAAAKAAAA (modifications not checked) [peptide SEQ ID NO: 10] | 4.5 |  | 
5 | AEKAYAAAAAAAAAA (modifications not checked) [peptide SEQ ID NO: 33] |  | > 80 | affinity determined by competition with biotinylated competitor ([7]; remark: other sources report otherwise): < 1 µM
6 | AEKYAAAAAAKAAAA (modifications not checked) [peptide SEQ ID NO: 6] |  | > 80 | 
7 | AEYAKAAAAAAAAAA (modifications not checked) [peptide SEQ ID NO: 32] | 3 |  | 
8 | EAAYAAAAAAKAAAA (modifications not checked) [peptide SEQ ID NO: 16] | 5 | > 80 | 
9 | AAKYEAAAAAAAAAA (modifications not checked) [peptide SEQ ID NO: 28] |  | > 80 | 
10 | AKKYEAAAAAAAAAA (modifications not checked) [peptide SEQ ID NO: 21] | 2.2 |  | 
11 | AKYAEAAAAAAAAAA (modifications not checked) [peptide SEQ ID NO: 36] | 3 |  | 
12 | AAAYAAAAAAKAAAA (modifications not checked) [peptide SEQ ID NO: 5] | 7 |  | 
13 | AAKYEAAAAAKAAAA (modifications not checked) [peptide SEQ ID NO: 14] | 4 |  | 
14 | EAKYAAAAAAKAAAA (modifications not checked) [peptide SEQ ID NO: 18] | 4.4 |  | affinity determined by competition with biotinylated competitor [6]: 33 µM; affinity determined by competition with biotinylated competitor [9]: 3 µM
15 | AKEYAAAAAAKAAAA (modifications not checked) [peptide SEQ ID NO: 7] | 4.5 |  | affinity determined by competition with biotinylated competitor [6]: 19 µM
16 | EKKYAAAAAAKAAAA (modifications not checked) [peptide SEQ ID NO: 17] | 1.8 | > 80 | 
17 | AAKYAEAAAAKAAAA (modifications not checked) [peptide SEQ ID NO: 15] | 1.8 |  | affinity determined by competition with biotinylated competitor [10]: 16 µM; affinity determined by competition with biotinylated competitor [6]: 42 µM; affinity determined by competition with biotinylated competitor [9]: < 1 µM
18 | AYKAEAAAAAAAAAA (modifications not checked) [peptide SEQ ID NO: 35] | 1.3 |  | 
19 | AEEYAAAAAAKAAAA (modifications not checked) [peptide SEQ ID NO: 11] |  | > 80 | 
20 | AAEYKAAAAAAAAAA (modifications not checked) [peptide SEQ ID NO: 26] | 1.8 |  | 
